Measurements published in article PMC5015425, “Structural insights into Parkin substrate lysine targeting from minimal Miro substrates” (Scientific Reports, 2016).

Molecular target: the molecule itself
Experiment: SEC-MALS; S200 10/300 GL column, 25 mM HEPES pH 7.4, 200 mM NaCl, 0.5 mM TCEP, 1 mM MgCl2, 0.5 mL/min, 10 °C; injected: hMiro1-C 16 mg/mL, hMiro2-C 7 mg/mL, hMiro1-CM 18 mg/mL

B1: human Miro1 cGTPase domain, aa 411-592 (hMiro1-C) (domain or fragment, UniProt Q8IXI2 411-592, looked up)
chain: KKQTQRNVFRCNVIGVKNCGKSGVLQALLGRNLMRQKKIREDHKSYYAINTVYVYGQEKYLLLHDISESEFLTEAEIICDVVCLVYDVSNPKSFEYCARIFKQHFMDSRIPCLIVAAKSDLHEVKQEYSISPTDFCRKHKMPPPQAFTCNTADAPSKDIFVKLTTMAMYPHVTQADLKSSTF
notes: human Miro1 (RhoT1), C-terminal GTPase (cGTPase) domain, residues 411-592; Dimer in the crystal and in solution; Details of expression are in the Supplementary Methods; also called hMiro1-CD; hMiro1 cGTPase; source: bacteria, purified (TALON beads, HiTrap S cation exchange, Superdex 200 when necessary)
- stoichiometry N: 2
